This data set has as its system Saccharomyces cerevisiae. Description: protein stability index of tFT-peptide fusion (C-terminal peptide) (PSI (0-1 scale)); higher = more stable (slower turnover). The conditions noted are these: temperature: 30 C. How it is done:
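MPS profiling in S. cerevisiae of the yeast C-terminome library: the last 12 aa of each annotated ORF are fused to the C-terminus of a sfGFP-mCherry timer, after a GGGS linker. Cells are FACS-sorted into 8 mCherry/sfGFP bins and deep-sequenced. PSI runs from 0 (unstable) to 1 (stable); wild type and das1Δ backgrounds, two technical replicates each.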

Setting [1] is: genetic background: das1 deletion.

For 67 sequences, protein stability index results are on record in the supplement of paper PMC10724198.

± gives the standard deviation of the averaged measurements.

Take NPAARLDEDLYE [FRS2 C-terminal 12 aa]: the protein stability index came out at 0.662 ± 0.053 under setting [1] and 0.707 ± 0.022 (genetic background: wild type).
For the sequence NQKNEDLSDIKL [UTP30 C-terminal 12 aa], the protein stability index runs as follows: under setting [1], 0.658 ± 0.019; (genetic background: wild type) 0.755 ± 0.13.
With NQTSFSRDRLRR [RRD1 C-terminal 12 aa], the protein stability index turned out to be 0.702 ± 0.013 under setting [1] and 0.722 ± 0.066 (genetic background: wild type).
In the case of NRAKGKVVVKMK [YIM1 C-terminal 12 aa], the protein stability index is, setting by setting: under setting [1], 0.69 ± 0.022; (genetic background: wild type) 0.6976 ± 0.0037.
For NRRNNGYHPYNR [HRP1 C-terminal 12 aa], the protein stability index amounted to 0.688 ± 0.019 under setting [1] and 0.6645 ± 0.0011 (genetic background: wild type).
On to NSARKRVFGTVI [DIP2 C-terminal 12 aa], for which the protein stability index came to 0.6997 ± 0.0036 under setting [1] and 0.655 ± 0.0069 (genetic background: wild type).
As for “NSISPPPRKGFI [YGL006W-A C-terminal 12 aa]”, the protein stability index came to 0.7177 ± 0.005 under setting [1] and 0.714 ± 0.055 (genetic background: wild type).
Taken in the same sequence, the figures for NTFTEHNSNIYY [SPT10 C-terminal 12 aa] were 0.704 ± 0.021 and 0.706 ± 0.029.
Taken in the same sequence, the figures for NTNELTDEHRWI [PHO2 C-terminal 12 aa] were 0.6977 ± 0.0017 and 0.668 ± 0.017.
As to “NVFNPDQPRMGP [YLR154W-A C-terminal 12 aa]”, the protein stability index by setting is: under setting [1], 0.711 ± 0.017; (genetic background: wild type) 0.711 ± 0.018.
For NVGYMHTQPQQR [TCO89 C-terminal 12 aa], the protein stability index was 0.71 ± 0.0077 under setting [1] and 0.67 ± 0.016 (genetic background: wild type).
On the same counts, the results for NVIRVWQVMTAN [ASC1 C-terminal 12 aa] are 0.576 ± 0.0091 and 0.272 ± 0.016.
With NVLTVVNPDEAD [SLG1 C-terminal 12 aa], the protein stability index under setting [1] is 0.692 ± 0.027 and the protein stability index (genetic background: wild type) was found to be 0.6841 ± 0.0015.
Consider NWSNQQINVQSS [PHM8 C-terminal 12 aa], for which the protein stability index under setting [1] was determined as 0.7172 ± 0.0032 and the protein stability index (genetic background: wild type) came out at 0.674 ± 0.018.
On the same counts, the results for NYEITPYENVHV [TOS2 C-terminal 12 aa] are 0.682 ± 0.026 and 0.7131 ± 0.0041.
Taken in the same sequence, the figures for NYLFKLMGPSSD [VTC2 C-terminal 12 aa] were 0.687 ± 0.032 and 0.655 ± 0.008.
Taken in the same sequence, the figures for PAAVFAETLKHD [RPL4B C-terminal 12 aa] were 0.686 ± 0.016 and 0.705 ± 0.011.
On to PDDQIHSILLSL [MET13 C-terminal 12 aa], for which the protein stability index is 0.708 ± 0.019 under setting [1] and 0.714 ± 0.018 (genetic background: wild type).
For the sequence “PGGGGGSPLIFL [YHR165W-A C-terminal 12 aa]”, the protein stability index is 0.7299 ± 0.0012 under setting [1] and 0.728 ± 0.02 (genetic background: wild type).
Taken in the same sequence, the figures for PGTRGRVASKFL [MIM1 C-terminal 12 aa] were 0.7098 ± 0.0037 and 0.705 ± 0.0099.
As to PISHVNNNDTHA [SLM3 C-terminal 12 aa], the protein stability index was found to be 0.727 ± 0.014 under setting [1] and 0.688 ± 0.0079 (genetic background: wild type).
Taken in the same sequence, the figures for PKYKEEESRSAV [RSN1 C-terminal 12 aa] were 0.678 ± 0.035 and 0.668 ± 0.019.
On to PLTNNIRPISIM [YJR115W C-terminal 12 aa], for which the protein stability index is, setting by setting: under setting [1], 0.6893 ± 0.0007; (genetic background: wild type) 0.6548 ± 0.005.
In the case of PMIWHLVKKQWK [TOM5 C-terminal 12 aa], the protein stability index is, setting by setting: under setting [1], 0.686 ± 0.011; (genetic background: wild type) 0.682 ± 0.052.
Taken in the same sequence, the figures for PPNSTSTNPYSS [SKG3 C-terminal 12 aa] were 0.729 ± 0.015 and 0.7181 ± 0.0014.
In turn, PPPQESTEKEEK [MRP13 C-terminal 12 aa] displayed a protein stability index under setting [1] of 0.709 ± 0.031 and a protein stability index (genetic background: wild type) of 0.668 ± 0.0098.
On the same counts, the results for PPSPQEELLIEL [VPS27 C-terminal 12 aa] are 0.721 ± 0.017 and 0.7051 ± 0.0024.
On the same counts, the results for PRERLLSEYCSS [MET8 C-terminal 12 aa] are 0.71885 ± 0.00032 and 0.7199 ± 0.0033.
PSNASNTTTRRP [YKR045C C-terminal 12 aa] displayed a protein stability index under setting [1] of 0.703 ± 0.032 and a protein stability index (genetic background: wild type) of 0.6901 ± 0.0053.
For the sequence PSYPSEKISYSK [ADO1 C-terminal 12 aa], the protein stability index runs as follows: under setting [1], 0.7017 ± 0.0027; (genetic background: wild type) 0.726 ± 0.065.
Taken in the same sequence, the figures for PTIVGGLYYQRP [AAR2 C-terminal 12 aa] were 0.7 ± 0.0021 and 0.696 ± 0.012.
With QAKKSNSCCIIM [YKT6 C-terminal 12 aa], the protein stability index under setting [1] was 0.732 ± 0.034 and the protein stability index (genetic background: wild type) worked out at 0.766 ± 0.06.
As to QAKLTAATNAKQ [PDC1 C-terminal 12 aa], the protein stability index runs as follows: under setting [1], 0.698 ± 0.018; (genetic background: wild type) 0.716 ± 0.035.
Turning to QEGGDNTKIKQN [RNP1 C-terminal 12 aa], the protein stability index by setting is: under setting [1], 0.731 ± 0.023; (genetic background: wild type) 0.638 ± 0.024.
Take QFFFTSRQKNYV [ERP4 C-terminal 12 aa]: the protein stability index is 0.707 ± 0.014 under setting [1] and 0.654 ± 0.01 (genetic background: wild type).
Consider QIADDRPWCRME [YHC3 C-terminal 12 aa], for which the protein stability index reads like this: under setting [1], 0.705 ± 0.01; (genetic background: wild type) 0.6831 ± 0.0064.
Taken in the same sequence, the figures for QIAFAWQNKPRL [PXP1 C-terminal 12 aa] were 0.815 ± 0.029 and 0.793 ± 0.045.
With QKAQDVDVSMQD [RPN13 C-terminal 12 aa], the protein stability index runs as follows: under setting [1], 0.68 ± 0.022; (genetic background: wild type) 0.654 ± 0.026.
Taken in the same sequence, the figures for QKRKSRILSFIK [UBP9 C-terminal 12 aa] were 0.7208 ± 0.006 and 0.732 ± 0.047.
Taken in the same sequence, the figures for QLINGRKIIAGN [MOT2 C-terminal 12 aa] were 0.6718 ± 0.0014 and 0.7 ± 0.09.
Taken in the same sequence, the figures for QLVKLQLVELKL [LAM5 C-terminal 12 aa] were 0.6108 ± 0.0024 and 0.602 ± 0.026.
With QMQQMAKQFGMG [SRP54 C-terminal 12 aa], the protein stability index under setting [1] came out at 0.6863 ± 0.0024 and the protein stability index (genetic background: wild type) worked out at 0.68513 ± 0.00031.
Turning to “QMSAMTEKFGKL [YKL068W-A C-terminal 12 aa]”, the protein stability index by setting is: under setting [1], 0.726 ± 0.0095; (genetic background: wild type) 0.693 ± 0.015.
On to “QNEICQYDNTSP [YGR109W-B C-terminal 12 aa]”, for which the protein stability index reads like this: under setting [1], 0.7173 ± 0.0057; (genetic background: wild type) 0.694 ± 0.012.
With QNLLSAYRMNHK [AVO1 C-terminal 12 aa], the protein stability index came out at 0.70387 ± 0.00067 under setting [1] and 0.64 ± 0.021 (genetic background: wild type).
On to QQGGAGADQKTE [EMC10 C-terminal 12 aa], for which the protein stability index under setting [1] is 0.6815 ± 0.0066 and the protein stability index (genetic background: wild type) was 0.656 ± 0.028.
Taken in the same sequence, the figures for QQQQQQQQQQQQ [PUB1 C-terminal 12 aa] were 0.71 ± 0.029 and 0.672 ± 0.052.
Taken in the same sequence, the figures for QVSLLLGFSSRS [MRX20 C-terminal 12 aa] were 0.698 ± 0.0012 and 0.7 ± 0.011.
As to QYDYELIQVQCS [PPN2 C-terminal 12 aa], the protein stability index runs as follows: under setting [1], 0.431 ± 0.043; (genetic background: wild type) 0.51 ± 0.032.
Taken in the same sequence, the figures for QYVLYKNEAGDK [AIM39 C-terminal 12 aa] were 0.689 ± 0.017 and 0.698 ± 0.019.
Taken in the same sequence, the figures for RAVTKYSSSTQA [HTB1 C-terminal 12 aa] were 0.7067 ± 0.0046 and 0.695 ± 0.034.
On the same counts, the results for RDLFEIYQKMMQ [MUK1 C-terminal 12 aa] are 0.725 ± 0.02 and 0.706 ± 0.056.
As to RDNQIPDKEIGI [CAF16 C-terminal 12 aa], the protein stability index was 0.6731 ± 0.0026 under setting [1] and 0.704 ± 0.072 (genetic background: wild type).
The sequence REAKNLPKPSFL [EDC1 C-terminal 12 aa] returned a protein stability index under setting [1] of 0.70153 ± 0.00024 and a protein stability index (genetic background: wild type) of 0.698 ± 0.0091.
Taken in the same sequence, the figures for RELLKSLVLSHR [RSM23 C-terminal 12 aa] were 0.703 ± 0.0085 and 0.683 ± 0.019.
On the same counts, the results for RFLDYVRELESF [PDX1 C-terminal 12 aa] are 0.698 ± 0.014 and 0.70618 ± 0.0004.
On the same counts, the results for RGSEHYTKRKKI [UBS1 C-terminal 12 aa] are 0.687 ± 0.022 and 0.6822 ± 0.0035.
As for RIELSKYYNTNL [YPD1 C-terminal 12 aa], the protein stability index turned out to be 0.6986 ± 0.0043 under setting [1] and 0.716 ± 0.059 (genetic background: wild type).
In turn, RIIEYFEEYQCW [FRE6 C-terminal 12 aa] returned a protein stability index under setting [1] of 0.712 ± 0.014 and a protein stability index (genetic background: wild type) of 0.731 ± 0.042.
As to RKEDDKRDTQEK [SOF1 C-terminal 12 aa], the protein stability index runs as follows: under setting [1], 0.713 ± 0.024; (genetic background: wild type) 0.67 ± 0.019.
With “RKELEKGKKNSK [YLR363W-A C-terminal 12 aa]”, the protein stability index stood at 0.694 ± 0.025 under setting [1] and 0.703 ± 0.054 (genetic background: wild type).
Sequence RKFVFNPPKPRK [CYT1 C-terminal 12 aa] gave a protein stability index under setting [1] of 0.691 ± 0.025 and a protein stability index (genetic background: wild type) of 0.694 ± 0.056.
On to RKYPNQCGTISN [EXG1 C-terminal 12 aa], for which the protein stability index by setting is: under setting [1], 0.712 ± 0.011; (genetic background: wild type) 0.674 ± 0.03.
In the case of RLQQVRKNPYPF [OPI7 C-terminal 12 aa], the protein stability index was found to be 0.7357 ± 0.0072 under setting [1] and 0.712 ± 0.032 (genetic background: wild type).
Take RLYDRINGKPHD [MRP10 C-terminal 12 aa]: the protein stability index came out at 0.671 ± 0.014 under setting [1] and 0.668 ± 0.021 (genetic background: wild type).
For the sequence RNVYSTKTRCIE [TDA10 C-terminal 12 aa], the protein stability index reads like this: under setting [1], 0.681 ± 0.017; (genetic background: wild type) 0.699 ± 0.023.
For RQDNNHNGSSNG [MET32 C-terminal 12 aa], the protein stability index by setting is: under setting [1], 0.6936 ± 0.0016; (genetic background: wild type) 0.706 ± 0.025.
